Experimental data from CN116925225A (CAS BLOOD HEMATONOSIS HOSPITAL INST OF BLOOD HEMATONOSIS CAS, dated 2023).

Target: T1, 人CD7 (human CD7 on the surface of Jurkat, Molt4, CCRF-CEM and Hut78 cells) (human, UniProt P09564 26-240)
T1 construct: whole, on cells; also called CD7抗原
T1 sequence (looked up): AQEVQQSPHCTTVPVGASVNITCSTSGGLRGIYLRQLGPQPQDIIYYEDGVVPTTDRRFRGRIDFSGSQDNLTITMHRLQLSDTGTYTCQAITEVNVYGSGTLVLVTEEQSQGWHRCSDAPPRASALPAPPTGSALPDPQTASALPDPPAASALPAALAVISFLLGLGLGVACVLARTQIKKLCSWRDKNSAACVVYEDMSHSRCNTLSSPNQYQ
Test: FACS, 0.15μg/100μl antibody on 2×10^5 Jurkat, Molt4, CEM and Hut78 cells (high in human CD7)

B1: 单克隆抗体HIT7 (CD7-HIT7, mouse anti-human CD7 monoclonal antibody) (antibody, V domains shown)
VH: QVQLQESGPGLVKPSQTVSLTCTVTGISITTGNYRWSWIRQFPGNKLEWIGYIYYSGIITYNPSRTSRTTITRDISKNQFFLEMNSLTAEDTATYYCARERGIYYDSLWYFDVWGAGTTVTVSS
VL: DIVLTQSPASLAVSLGQRATISCRASKSVSASGYSYMHWYQQKPGQPPKLLIYLASNLESGVPARFSGSGSGTDFTLNIHPVEEEDAVTYYCQHSRELPYTFGGGTKLEIKR
notes: also called 本发明单克隆抗体; 鼠抗人CD7单克隆抗体
B1: binds.
